Source: patent US20240033359A1 (Takeda / Millennium, published 2024)

B1: V1 anti-GCC single domain VH antibody (VHH)
VHH: QVQLQESGPGLVKPSETLSLTCTVSGASISHYYWSWFRQPAGKGLEWIGRIYPSGSTSYNPSLKSRVAMSVDTPKNQFSLNLSSVTAADTAVYYCARDRSTGWSEWNSDLWGRGTLVTVSS
notes: Human heavy chain variable single domain antibody (VH only, no light chain), tested as recombinant purified VH; also called V1 VH
B2: V51 anti-GCC single domain VH antibody (VHH)
VHH: EVQLVESGGGLVQPGGSLRLSCAASGFTFSRYWMTWVRQAPGKGLEWVAKIRHDGGEKYYADSVKGRFTISRDNAKNSLYLQMNSLRAEDTAVYYCTRDYNKDYWGQGTLVTVSS
notes: Human heavy chain variable single domain antibody (VH only), tested as recombinant purified VH; No tags are stated
B3: V5 anti-GCC single domain VH antibody (VHH)
VHH: QVQLVESGGGLVQPGGSLRLSCTASGFTFSRYWMSWVRQAPGKGLEWVAKIRHDGGEKYYVDSVKGRFTISRDNAKNSLYLQMNSLRAEDTAVYYCATDYTRDVWGQGTAVTVSS
notes: as for B2
B4: V36 anti-GCC single domain VH antibody (VHH)
VHH: EVQLVESGGGLAQPGGSLRLSCAASGFTFSRYWMTWVRQAPGGRLEWVAKIKYDGSEKYYADSVKGRFTISRDNAKNSLYLQMDSLRAEDTAVYYCTRDYNKDYWGQGTLVTVSS
notes: as for B2
B5: V48 anti-GCC single domain VH antibody (VHH)
VHH: EVQLVESGGGLVQPGGSLRLTCAASGFTFSRYWMTWVRQAPGKGLEWVAKIRHDGGEKYYPDSVKGRFTVSRDNAKNSLYLQMDNLRAEDTAMYYCTRDYNKDLWGQGTLVTVSS
notes: as for B2

Key:
[1] = molecular target: T1, human guanylyl cyclase C (GCC), as used in the Octet binding assay (human, UniProt P25092 24-430, limits assumed); experiment: Octet BLI, 1:1 model
T1 construct: also called STAR; GUC2C
T1 sequence (P25092 24-430 limits assumed): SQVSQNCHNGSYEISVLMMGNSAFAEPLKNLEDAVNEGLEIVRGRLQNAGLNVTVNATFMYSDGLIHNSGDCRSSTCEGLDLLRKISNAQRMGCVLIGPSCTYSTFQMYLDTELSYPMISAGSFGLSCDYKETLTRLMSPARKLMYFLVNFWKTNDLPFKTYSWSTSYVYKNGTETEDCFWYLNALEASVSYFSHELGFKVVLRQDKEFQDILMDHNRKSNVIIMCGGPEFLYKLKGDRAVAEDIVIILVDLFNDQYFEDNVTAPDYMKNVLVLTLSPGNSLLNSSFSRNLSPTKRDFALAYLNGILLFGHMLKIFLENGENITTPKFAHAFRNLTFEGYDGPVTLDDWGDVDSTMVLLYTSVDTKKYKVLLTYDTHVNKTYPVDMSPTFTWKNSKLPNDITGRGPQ
Method: Single domain heavy chain antibodies (VH) were generated that specifically target human GCC (e.g., anti-GCC binders provided in Tables 1-3). […] Binding kinetics were determined using an Octet binding assay. These were measured in real-time bio-layer interferometer based biosensor Octet (ForteBio). All the binding studies were performed in HBS-ET Octet kinetics buffer. Biosensors were always washed in Octet kinetics buffer in between different steps. A seven point, two-fold dilution series of each VH was made. The contact time for each of the association steps was 300 seconds and the dissociation step was varied between 400-600 seconds. Kinetic association (ka) and dissociation (kd) rate constants were determined by processing and fitting the data to a 1:1 binding model using ForteBio Analysis software.

GCC on CT26 cells = molecular target: T2, GCC on CT26 cells; experiment: flow cytometry on CT26 cells, dose response
T2 construct: whole, on cells; That the target is GCC is inferred from this context
T2 sequence (Q3UWA6 whole entry): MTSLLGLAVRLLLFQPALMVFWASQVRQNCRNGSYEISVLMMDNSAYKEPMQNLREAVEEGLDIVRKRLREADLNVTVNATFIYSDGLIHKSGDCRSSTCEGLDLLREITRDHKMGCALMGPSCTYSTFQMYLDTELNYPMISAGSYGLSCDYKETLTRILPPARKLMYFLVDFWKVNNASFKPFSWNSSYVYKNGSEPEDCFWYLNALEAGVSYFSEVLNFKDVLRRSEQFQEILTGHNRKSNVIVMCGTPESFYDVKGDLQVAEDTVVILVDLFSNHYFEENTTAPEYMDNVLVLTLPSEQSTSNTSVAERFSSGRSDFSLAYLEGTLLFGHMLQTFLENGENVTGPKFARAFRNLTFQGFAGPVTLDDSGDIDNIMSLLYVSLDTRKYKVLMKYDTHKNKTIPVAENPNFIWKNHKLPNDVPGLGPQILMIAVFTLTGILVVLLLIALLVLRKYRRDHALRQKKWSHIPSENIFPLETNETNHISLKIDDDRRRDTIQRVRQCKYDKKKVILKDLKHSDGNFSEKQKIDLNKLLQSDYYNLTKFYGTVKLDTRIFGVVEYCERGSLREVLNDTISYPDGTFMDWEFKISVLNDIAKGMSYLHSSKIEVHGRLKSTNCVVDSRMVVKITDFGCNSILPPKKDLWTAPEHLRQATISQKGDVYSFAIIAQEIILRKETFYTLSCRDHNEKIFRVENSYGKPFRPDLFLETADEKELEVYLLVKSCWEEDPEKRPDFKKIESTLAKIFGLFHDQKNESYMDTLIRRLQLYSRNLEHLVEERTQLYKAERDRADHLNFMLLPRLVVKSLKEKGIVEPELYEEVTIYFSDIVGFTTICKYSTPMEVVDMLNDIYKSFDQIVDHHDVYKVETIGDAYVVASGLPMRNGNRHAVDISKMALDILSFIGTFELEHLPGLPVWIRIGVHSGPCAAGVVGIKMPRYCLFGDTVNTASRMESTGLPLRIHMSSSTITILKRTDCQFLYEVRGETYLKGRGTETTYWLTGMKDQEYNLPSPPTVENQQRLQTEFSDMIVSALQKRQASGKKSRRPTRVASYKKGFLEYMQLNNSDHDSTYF
Method: Binding of single domain antibodies to CT26 cells was measured using flow cytometry. CT26 cells were incubated with serially diluted VH and fluorescence was measured by flow cytometry. Anti-GCC VH antibodies were confirmed for binding to CT26 cells by a FACS dose response assay to obtain an on cell binding EC50 (nM) as shown in Table 4.

Row | Binder | Kd [1] [nM] | koff [1] [s⁻¹] | EC50 (GCC on CT26 cells) [nM]
1 | B1 | 0.329 | 0.000208 | 0.72
2 | B2 | 9.54 | 0.00185 | 
3 | B3 | 7.71 | 0.000719 | 1.52
4 | B4 | 105 | 0.0035 | 
5 | B5 | 1.38 | 0.000341 | 1.01
